Test results: patent US20240209100A1 (DIAGONAL THERAPEUTICS, published 2024)

Assays:
[1] = target: T1, IL-18 receptor (IL-18Rα/IL-18Rβ) overexpressed on HEK-Blue IL-18 cells (Homo sapiens (Human), UniProt Q13478 19-541; O95256 20-599); assay: cell-based or functional assay
T1 sequence 1: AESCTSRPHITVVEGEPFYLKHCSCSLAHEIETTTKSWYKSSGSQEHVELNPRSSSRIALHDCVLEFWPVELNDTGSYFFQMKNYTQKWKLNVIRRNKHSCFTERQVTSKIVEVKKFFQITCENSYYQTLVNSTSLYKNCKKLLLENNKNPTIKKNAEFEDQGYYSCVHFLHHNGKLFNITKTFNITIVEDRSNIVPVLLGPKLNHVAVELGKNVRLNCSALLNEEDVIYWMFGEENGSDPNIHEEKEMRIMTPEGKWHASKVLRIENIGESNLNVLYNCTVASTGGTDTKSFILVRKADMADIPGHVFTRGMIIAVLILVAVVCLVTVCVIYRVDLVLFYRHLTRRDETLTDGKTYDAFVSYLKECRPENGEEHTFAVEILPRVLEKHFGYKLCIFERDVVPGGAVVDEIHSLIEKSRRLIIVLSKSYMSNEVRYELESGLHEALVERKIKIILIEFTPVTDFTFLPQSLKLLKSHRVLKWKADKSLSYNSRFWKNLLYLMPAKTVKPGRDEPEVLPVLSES
T1 sequence 2: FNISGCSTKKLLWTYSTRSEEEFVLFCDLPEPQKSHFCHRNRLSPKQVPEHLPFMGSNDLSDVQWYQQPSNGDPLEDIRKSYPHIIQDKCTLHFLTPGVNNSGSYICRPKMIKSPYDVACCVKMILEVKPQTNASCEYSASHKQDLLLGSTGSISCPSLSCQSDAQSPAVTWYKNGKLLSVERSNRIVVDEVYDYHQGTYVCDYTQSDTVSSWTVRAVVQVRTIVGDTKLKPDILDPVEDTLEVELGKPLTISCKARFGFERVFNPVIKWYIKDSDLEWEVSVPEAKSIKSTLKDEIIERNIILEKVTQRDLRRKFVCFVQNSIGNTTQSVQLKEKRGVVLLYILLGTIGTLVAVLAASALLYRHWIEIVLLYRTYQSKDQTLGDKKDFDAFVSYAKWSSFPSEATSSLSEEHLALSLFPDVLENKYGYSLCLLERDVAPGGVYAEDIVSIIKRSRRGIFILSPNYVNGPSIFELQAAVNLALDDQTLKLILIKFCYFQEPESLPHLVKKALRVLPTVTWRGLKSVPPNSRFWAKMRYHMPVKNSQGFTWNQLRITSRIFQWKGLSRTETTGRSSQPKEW

[2] = target: T1, IL-18 receptor (IL-18Rα/IL-18Rβ) …; assay: cell-based or functional assay; remark: listed apart in the source

Binder	EC50 (read off the curve), HEK Blue IL-18 SEAP reporter [1] [nM]	HEK-Blue IL-18: Emax (Abs at 630 nm) at 10^8 (average of two replicates) [2] [Abs at 630 nm]
DGL333 (bispecific antibody) heavy 1: EVQLLESGGGLVQPGGSLRLSCAASGRTFSKHAMGWFRQAPGKGLEFVSAIDWSGGSTYYADSVKGRFTISRDNSKNTVYLQMNSLRAEDTAVYYCAADSYTDYAQLWLPELESEYDYWGQGTLVTVSSCPPCPAPEAAGAPSVFLFPPKPKDTLYITREPEVTCVVVDVSHEDPEVKFNWYVDGVEVHNAKTKPREEQYNSTYRVVSVLTVLHQDWLNGKEYKCKVSNKALPAPIEKTISKAKGQPREPQVCTLPPSRDELTKNQVSLSCAVKGFYPSDIAVEWESNGQPENNYKTTPPVLDSDGSFFLVSKLTVDKSRWQQGNVFSCSVMHEALHNHYTQKSLSLSPG heavy 2: QLQLLESGGGLVQPGGSLRLSCAASRSITFSHNVMGWYRQAPGKGRELVSSIGSGGSTNYVDSVKGRFTISRDNSKKTLYLQMNSLRAEDTAVYYCGVVVGVYRGSLGQGTLVTVSSCPPCPAPEAAGAPSVFLFPPKPKDTLYITREPEVTCVVVDVSHEDPEVKFNWYVDGVEVHNAKTKPREEQYNSTYRVVSVLTVLHQDWLNGKEYKCKVSNKALPAPIEKTISKAKGQPREPQVYTLPPCRDELTKNQVSLWCLVKGFYPSDIAVEWESNGQPENNYKTTPPVLDSDGSFFLYSKLTVDKSRWQQGNVFSCSVMHEALHNHYTQKSLSLSPG	~6	–
DGL020 (bispecific antibody, human IgG1, kappa, L234A L235A) heavy 1: EVQLVESGGGLVQAGGSLRLSCAASGRTFSDARMGWFRQAPGRERELIAFISWFGSNTNYGSSVKGRFTISRDNTKNTVYLQMNSLKLEDTAVYYCAACRQSICIDSAEYFDDWGQGTQVTVSSDKTHTCPPCPAPEAAGGPSVFLFPPKPKDTLMISRTPEVTCVVVDVSHEDPEVKFNWYVDGVEVHNAKTKPREEQYNSTYRVVSVLTVLHQDWLNGKEYKCKVSNKALPAPIEKTISKAKGQPREPQVCTLPPSRDELTKNQVSLSCAVKGFYPSDIAVEWESNGQPENNYKTTPPVLDSDGSFFLVSKLTVDKSRWQQGNVFSCSVMHEALHNHYTQKSLSLSPG heavy 2: not shown light: DIQMTQSPSSLSASVGDRVTITCQATEDIESFLAWYQQKPGQAPKLLIYRASTLESGVPSRFSGSGSGTDFTLTISSLQPEDFATYYCQSTVYGVNFVANAFGGGTKVVIKRTVAAPSVFIFPPSDEQLKSGTASVVCLLNNFYPREAKVQWKVDNALQSGNSQESVTEQDSKDSTYSLSSTLTLSKADYEKHKVYACEVTHQGLSSPVTKSFNRGEC	–	0.37
DGL023 (bispecific antibody, human IgG1, kappa, L234A L235A) heavy 1: EVQLVESGGGLVQPGGSLRLSCAASGFTRSYYTIAWFRQAPGKEREGISCIRNTDGSTVVSDSVEGRFTISRDNAKNTVFLQMNSLKTEDTAVYYCAARNDRYGGLCSVRHNYEYWGQGTQVTVSSDKTHTCPPCPAPEAAGGPSVFLFPPKPKDTLMISRTPEVTCVVVDVSHEDPEVKFNWYVDGVEVHNAKTKPREEQYNSTYRVVSVLTVLHQDWLNGKEYKCKVSNKALPAPIEKTISKAKGQPREPQVCTLPPSRDELTKNQVSLSCAVKGFYPSDIAVEWESNGQPENNYKTTPPVLDSDGSFFLVSKLTVDKSRWQQGNVFSCSVMHEALHNHYTQKSLSLSPG heavy 2: not shown light: DIQMTQSPSSLSASVGDRVTITCQATEDIESFLAWYQQKPGQAPKLLIYRASTLESGVPSRFSGSGSGTDFTLTISSLQPEDFATYYCQSTVYGVNFVANAFGGGTKVVIKRTVAAPSVFIFPPSDEQLKSGTASVVCLLNNFYPREAKVQWKVDNALQSGNSQESVTEQDSKDSTYSLSSTLTLSKADYEKHKVYACEVTHQGLSSPVTKSFNRGEC	–	0.37
